According to article PMC11903878, “Structural mechanisms for centrosomal recruitment and organization of the microtubule nucleator γ-TuRC” (Nature Communications, 2025):
Each block holds one molecule with its values, some of them ahead of it.

Tests used:
[1] = molecular target: X. laevis 2×FLAG-TEV-NEDD1-3C-GCP3(1–240)/ALFA-MZT1 complex (X. laevis) (UniProt O73787); assay: mass photometry; Refeyn TwoMP; purified NEDD1-N-GCP3/MZT1 diluted to a final concentration below 40 nM; tetramer of the fusion/MZT1 protomer
[2] = molecular target: the molecule itself; assay: cryo-EM structure; single particle analysis of the native γ-TuRC affinity-purified from X. laevis egg extract; particles with stoichiometric NEDD1/N-GCP3/MZT1 grapnel; AlphaFold2 models flexibly fitted (MDFF) into the density
[3] = molecular target: T1, human Augmin TII N-clamp with HAUS8∆[1-138] (human, UniProt Q9NVX0 1-118; Q7Z4H7 1-269; Q99871 1-299; Q9BT25 139-248); assay: pull-down; 25 μg recombinant EGFP-tagged Augmin TII N-clamp∆H8N added to lysate of HEK293 cells overexpressing POC5-HA or POC5^mut-HA, captured on GFP binder beads, 1 hr 4 °C; 50 mM Tris pH 7.5, 150 mM NaCl; HA blot; conditions: one partner purified
T1 construct: HAUS2, human, codons 1 to 118; HAUS6, human, codons 1 to 269; HAUS7, human, codons 1 to 299, followed by a TEV-EGFP-8xHis cleavable tag; HAUS8, human, codons 1 to 248 with the N-terminal truncation HAUS8∆[1-138]; The range 139-248 of HAUS8 is worked out from the printed limits 1 to 248 and the deletion 1-138; also called Augmin N-clamp; Augmin TII N-clamp∆H8N; source: E. coli BL21 CodonPlus-RIL, …
T1 sequence (Q9NVX0 1-118, chain 1 of 4): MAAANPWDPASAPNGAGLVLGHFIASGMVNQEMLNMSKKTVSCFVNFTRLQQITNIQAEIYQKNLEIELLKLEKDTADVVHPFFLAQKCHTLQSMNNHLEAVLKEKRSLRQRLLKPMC
T1 sequence (Q7Z4H7 1-269, chain 2 of 4): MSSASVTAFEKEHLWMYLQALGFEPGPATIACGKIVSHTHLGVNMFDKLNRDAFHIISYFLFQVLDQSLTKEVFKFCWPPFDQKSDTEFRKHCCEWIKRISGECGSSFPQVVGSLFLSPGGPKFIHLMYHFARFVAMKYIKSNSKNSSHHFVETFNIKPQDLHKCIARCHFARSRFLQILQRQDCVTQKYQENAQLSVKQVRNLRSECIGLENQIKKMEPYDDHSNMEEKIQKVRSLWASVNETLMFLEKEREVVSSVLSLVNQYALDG
T1 sequence (Q99871 1-299, chain 3 of 4): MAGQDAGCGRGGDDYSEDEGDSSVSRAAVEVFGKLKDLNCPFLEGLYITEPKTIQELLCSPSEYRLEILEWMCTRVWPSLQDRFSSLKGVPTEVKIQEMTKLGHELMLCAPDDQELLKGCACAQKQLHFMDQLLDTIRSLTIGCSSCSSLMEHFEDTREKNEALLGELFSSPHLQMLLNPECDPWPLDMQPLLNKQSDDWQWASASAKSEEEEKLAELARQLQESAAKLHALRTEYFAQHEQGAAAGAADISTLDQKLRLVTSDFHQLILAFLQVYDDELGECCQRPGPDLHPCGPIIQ
T1 sequence (Q9BT25 139-248, chain 4 of 4): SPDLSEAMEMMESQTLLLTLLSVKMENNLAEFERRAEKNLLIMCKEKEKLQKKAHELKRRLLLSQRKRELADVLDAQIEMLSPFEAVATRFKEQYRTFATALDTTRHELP

- stoichiometry N [1]: 4
Molecule: X. laevis 2×FLAG-TEV-NEDD1-3C-GCP3(1–240)/ALFA-MZT1 complex (from UniProt O73787 1-240; Q5U4M5 1-72)

B1: NEDD1 (neural precursor cell expressed, developmentally down-regulated 1), X. laevis, endogenous (natural protein, X. laevis (endogenous in egg extract), UniProt A0A8J0Q0Y8 1-671, looked up)
chain: MESRGGGGRVRLPGTTMQDNIRFVSAGDDVKIWDYSSMTTVEQFNPHSASHPVSSLCWSSNNHFLVTASGSGDKIVVSSCKSKPVPLLELAEGKKQTCVNLNSSSQYVVSGGLDNTVNIWDLKSKRLHRSLKDHKDEVTCVTFNANDCYVASGSMSGEIILHNVTTNLSSTPFGHGSSQPIRHLKYSYVKKSLLGTVSDSGSVTLWDANSQNPYHVFESAHKAPASGICFSPVNDLLLVTVGLDKRIICYDVSSKILLQTVVAESPLTAVDFMPDGATLAVGSSRGKIYLYDLRMLSSPVKTVSAHKTSVQCIQFQHSNIYKSSKGPSSKSSILSTAVNKKPSTKTAAGGTQSANITKDLPPSAISSLPQPVMPVDSKVLRVNDDKSGFPRSTSLDIIPSKETDFAKTSDYKSIDSFGRSSLGDIFSPVRDDASHFRGAEDLSCKGNDLDYLPQFSTIPSSRRNPVGANTQGIHGSPLHLIIESPIKEEDESQDSELKTRKPQLLKQDFRESSSKPASVDQNNLNNSPINSVTRTPEAIEKTGHQILSQLKSDVPAHGTKIASPKVAATMSTQLASSLSEKIADTLASDRTGAPLTAIQINFIKNMIEETLDDFREACHRDIVNLQVEMIKQFHIQSSEIQMLLERYSLNESLVSEIEKLREENKRLRANF
notes: NEDD1, X. laevis, endogenous; NM_001094388.1 is printed for the cDNA of the recombinant constructs; also called NEDD1^C (its C-terminus); source: endogenous, X. laevis egg extract; co-purified with the γ-TuRC
- stoichiometry N [2]: 4

- fold reduction against wild-type [3]: 3 fold
B2: POC5^mut-HA (S224E, R227A, K228A, V231A, S234K, L235A) (natural protein, human, UniProt Q8NA72 1-575, looked up)
chain: MSSDEEKYSLPVVQNDSSRGSSVSSNLQEEYEELLHYAIVTPNIEPCASQSSHPKGELVPDVRISTIHDILHSQGNNSEVRETAIEVGKGCDFHISSHSKTDESSPVLSPRKPSHPVMDFFSSHLLADSSSPATNSSHTDAHEILVSDFLVSDENLQKMENVLDLWSSGLKTNIISELSKWRLNFIDWHRMEMRKEKEKHAAHLKQLCNQINELKELQKTFEIEIGAADEAISKASHAIGKQKEKIELMRTFFHWRIGHVRARQDVYEGKLADQYYQRTLLKKVWKVWRSVVQKQWKDVVERACQARAEEVCIQISNDYEAKVAMLSGALENAKAEIQRMQHEKEHFEDSMKKAFMRGVCALNLEAMTIFQNRNDAGIDSTNNKKEEYGPGVQGKEHSAHLDPSAPPMPLPVTSPLLPSPPAAVGGASATAVPSAASMTSTRAASASSVHVPVSALGAGSAATAASEEMYVPRVVTSAQQKAGRTITARITGRCDFASKNRISSSLAIMGVSPPMSSVVVEKHHPVTVQTIPQATAAKYPRTIHPESSTSASRSLGTRSAHTQSLTSVHSIKVVD
notes: POC5, human, with six point mutations in the predicted POC5-Augmin interface; source: HEK293 (Tet-On 3G), overexpressed, in lysate; not shown: HA, C-terminal, kept
